Results on 23 molecules are retold here after patent publication US20210284724A1 (I MAB BIOPHARMA US, published 2021).

Numbering of substitutions follows the chain as printed.

One test addresses T1, mouse CXCL13 (mouse, UniProt O55038 22-109).
T1 construct: also called rmCXCL13
T1 sequence (looked up): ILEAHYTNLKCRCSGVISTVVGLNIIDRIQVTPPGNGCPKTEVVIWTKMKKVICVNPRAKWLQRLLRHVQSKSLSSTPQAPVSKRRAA
The experiment in a line: ELISA, coated antigen.

For a further test, the target named is T2, cynomolgus CXCL13 (cynomolgus, UniProt H6WS58 23-109).
T2 construct: also called cynoCXCL13; Cyno CXCL13
T2 sequence: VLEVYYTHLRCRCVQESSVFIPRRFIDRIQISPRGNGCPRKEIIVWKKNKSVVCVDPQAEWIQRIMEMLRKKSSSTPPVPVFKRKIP
The experiment in a line: ELISA, coated antigen.

Test [1] addresses T3, human CXCL13 (human, UniProt O43927 23-109).
T3 construct: also called huCXCL13; rhCXCL13
T3 sequence (looked up): T2 sequence with H8S, S32L, V52I, I65M, M68V, K72R, P77L
Nature of the test: ELISA, coated antigen.

The target of test [2] is T3, human CXCL13. Nature of the test: SPR Biacore 8K, Fab over immobilised CXCL13. The protocol: Among all humanized Fab samples, 71F4A3-VH2VL1, 71F4A3-VH1VL1 (Hz71F4), 71F4A3-VH1VL2, 71F4A3-VH3VL1, 411A11E9-VH1VL4, 411A11E9-VH3VL4, 411A11E9-VH2VL4, 411A11E9-VH3VL2, 411A11E9-VH1VL2, 21H12D9-VH1VL1, 21H12D9-VH2VL2, 21H12D9-VH3VL3, 21H12D9-VH1VL2, 64C10G1-VH1VL3, 64C10G1-VH1VL4, 64C10G1-VH1VL1, 64C10G1-VH1VL2 were selected to test affinity by Biacore 8K. 10 mM HEPES, 150 mM NaCl, 3 mM EDTA, 0.05% Tween-20, pH 7.4 served as running buffer and 10 mM glycine-HCl, pH2.0 served as regeneration buffer. CXCL13 protein were immobilized on Sensor Chip CM5 using amine coupling method (immobilization level ˜250RU). The serial concentrations of Fab (0-20 nM) were injected over immobilized CXCL13 at the flow rate of 30 μl/min. The dissociation phases were 600s.

Test [3] concerns the target T3, human CXCL13. The experiment in a line: SPR Biacore, off-rate ranking of Fabs.

B1: 348B10B1 (antibody, V domains shown)
VH: EVQLQQSGPELVKPGASVKISCKTSGYTFTEYIMHWVKQSHGRSLEWIGGINPDNGDTTYNQKFKGKATLTVDKSSTTAYMELRSLTSEDSAVYYCAGGVLDYWGQGTSVTVSS
VL: not shown
notes: Hybridoma mAb
For B1, the binding result with mouse CXCL13 was “no binding”. For the same molecule, the EC50 with cynomolgus CXCL13 was found to be 0.0166 µg/mL; with human CXCL13 [1] it was 0.0124 µg/mL.

B2: 339H3E2 (antibody, V domains shown)
VH: B1 VH with D54N, D57G, T77S, L101M
VL: not shown
notes: Hybridoma mAb
With B2, the binding result with mouse CXCL13 is reported as “no binding”. Also, the EC50 with cynomolgus CXCL13 worked out at 0.0319 µg/mL; with human CXCL13 [1], 0.0388 µg/mL.

B3: 360A3D4E3 (antibody, V domains shown)
VH: B1 VH with G42E, N52H, K65T
VL: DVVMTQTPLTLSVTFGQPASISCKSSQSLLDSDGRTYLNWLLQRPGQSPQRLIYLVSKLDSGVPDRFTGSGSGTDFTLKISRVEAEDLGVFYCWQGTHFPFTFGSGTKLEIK
notes: Hybridoma mAb
Take B3: the binding result in the test with mouse CXCL13 is “no binding”. The EC50 in the test with cynomolgus CXCL13 came out at 0.0178 µg/mL; with human CXCL13 [1] it was 0.00664 µg/mL.

B4: 411A11E9-VH1VL2 (Fab, V domains shown)
VH: EVQLVESGGGLVQPGGSLRLSCAASGFTFSDYYMAWVRQAPGKGLEWVASINYDGGDTYYRDSVKGRFTISRDNAKNSLYLQMNSLRAEDTAVYYCAREEDYDGSYVMDAWGQGTLVTVSS
VL: DIQMTQSPSSLSASVGDRVTITCKASQNINKELTWYQQKPGKAPKRLIYNTNILQTGVPSRFSGSGSGTEFTLTISSLQPEDFATYFCLQQSSLYTFGQGTKLEIK
notes: Humanized Fab, human gamma 1 and kappa constant domains
In the test with human CXCL13 [2], B4 registered a Kd of 2.83 nM, a koff of 0.00161 s⁻¹ and a kon of 570000 M⁻¹ s⁻¹. In the test with human CXCL13 [3], this molecule gave a Kd of 14.5 nM, a koff of 0.00114 s⁻¹ and a kon of 78200 M⁻¹ s⁻¹.

B5: 411A11E9-VH2VL4 (Fab, V domains shown)
VH: B4 VH with R98T
VL: B4 VL with V58I, F71Y
notes: as for B4
B5: in the test with human CXCL13 [2], the Kd was 0.931 nM, the koff stood at 0.000887 s⁻¹ and the kon was 953000 M⁻¹ s⁻¹. In the test with human CXCL13 [3], this molecule returned a Kd of 0.634 nM, a koff of 0.00105 s⁻¹ and a kon of 1.66e+06 M⁻¹ s⁻¹.

B6: 411A11E9-VH3VL4 (Fab, V domains shown)
VH: B4 VH with A24V, R98T
VL: B4 VL with V58I, F71Y
notes: as for B4
In the test with human CXCL13 [2], B6 came in with a Kd of 0.908 nM, a koff of 0.000823 s⁻¹ and a kon of 906000 M⁻¹ s⁻¹. In the test with human CXCL13 [3], this molecule returned a Kd of 0.498 nM, a koff of 0.00109 s⁻¹ and a kon of 2.19e+06 M⁻¹ s⁻¹.

B7: 411A11E9-VH1VL4 (Fab, V domains shown)
VH: B4 VH
VL: B4 VL with V58I, F71Y
notes: as for B4
In the test with human CXCL13 [2], B7 registered a Kd of 0.844 nM, a koff of 0.00157 s⁻¹ and a kon of 1.86e+06 M⁻¹ s⁻¹. In the test with human CXCL13 [3], this molecule had a Kd of 1.82 nM, a koff of 0.00063 s⁻¹ and a kon of 346000 M⁻¹ s⁻¹.

B8: 411A11E9-VH3VL2 (Fab, V domains shown)
VH: B4 VH with A24V, R98T
VL: B4 VL
notes: as for B4
B8: in the test with human CXCL13 [2], the Kd is 1.2 nM, the koff turned out to be 0.00126 s⁻¹ and the kon was 1.05e+06 M⁻¹ s⁻¹. In addition, in the test with human CXCL13 [3], the Kd was found to be 0.919 nM, the koff was determined as 0.00163 s⁻¹ and the kon is 1.78e+06 M⁻¹ s⁻¹.

B9: 368D6D10 (antibody, V domains shown)
VH: DVQLQESGPGLVKPSQSLSLTCTVTGYSITSDYAWNWIRQFPGNKLEWMGYISYSGSTSYNPSLKSRISITRDTSKNQFFLQLNSVTTEDTATYYCVAGHFDYWGQGTTLTVSS
VL: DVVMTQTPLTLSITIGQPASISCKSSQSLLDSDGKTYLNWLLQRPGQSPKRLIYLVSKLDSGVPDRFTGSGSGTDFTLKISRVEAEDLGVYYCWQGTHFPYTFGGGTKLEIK
notes: Hybridoma mAb
As for B9, the binding result in the test with mouse CXCL13 is listed as “no binding”. In addition, the EC50 with cynomolgus CXCL13 is 0.14 µg/mL; with human CXCL13 [1] it was 0.0864 µg/mL.

B10: 397C3B3 (antibody, V domains shown)
VH: B9 VH with T71N
VL: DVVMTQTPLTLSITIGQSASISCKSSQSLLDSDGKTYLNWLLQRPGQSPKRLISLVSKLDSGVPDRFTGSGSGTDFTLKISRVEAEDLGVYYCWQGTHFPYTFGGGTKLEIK
notes: Hybridoma mAb
Regarding B10, the binding result with mouse CXCL13 is “no binding”. The results for the EC50 with cynomolgus CXCL13 and with human CXCL13 [1] were 0.401 µg/mL and 0.344 µg/mL, respectively.

B11: 367F1C2 (antibody, V domains shown)
VH: B9 VH with Q40H, S55T, T58S, T88S, Q106P
VL: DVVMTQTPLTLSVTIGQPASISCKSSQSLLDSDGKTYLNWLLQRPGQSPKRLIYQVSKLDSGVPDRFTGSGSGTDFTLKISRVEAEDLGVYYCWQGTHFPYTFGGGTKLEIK
notes: Hybridoma mAb
As to B11, the binding result with mouse CXCL13 is given as “no binding”. Further, the EC50 with cynomolgus CXCL13 is 0.0557 µg/mL; in the test with human CXCL13 [1], 0.0668 µg/mL.

B12: 353F9C4 (antibody, V domains shown)
VH: B9 VH with N36S, S53T, G56D, T88A, V97A, T109I
VL: not shown
notes: Hybridoma mAb
For the molecule B12, the binding result with mouse CXCL13 is given as “no binding”. Further, the EC50 with cynomolgus CXCL13 was determined as 0.172 µg/mL; in the test with human CXCL13 [1], 0.135 µg/mL.

B13: 355A1F6 (antibody, V domains shown)
VH: B9 VH with N36S, G56D, T88A, V97A, T109I
VL: not shown
notes: Hybridoma mAb
Regarding B13, the binding result with mouse CXCL13 was “no binding”. Moreover, the EC50 turned out to be 0.154 µg/mL in the test with cynomolgus CXCL13 and 0.0943 µg/mL with human CXCL13 [1].

B14: 348E12F12 (antibody, V domains shown)
VH: B9 VH with S57D
VL: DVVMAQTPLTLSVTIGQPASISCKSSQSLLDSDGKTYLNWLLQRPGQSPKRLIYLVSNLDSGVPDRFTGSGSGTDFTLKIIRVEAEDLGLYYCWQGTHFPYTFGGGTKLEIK
notes: Hybridoma mAb
Turning to B14, the binding result with mouse CXCL13 is “no binding”. Further, the figures for the EC50 with cynomolgus CXCL13 and with human CXCL13 [1] were 0.0765 µg/mL and 0.0636 µg/mL, respectively.

B15: 21H12D9-VH2VL2 (Fab, V domains shown)
VH: QVQLVQSGAEVVKPGASVKVSCKASGYTFTDYYMNWVRQAPGQGLEWMGVINPNNGGTTYKEKFKGRVTMTVDTSISTAYMELSRLRSDDTAVYYCARDDYDAGYWGQGTLVTVSS
VL: DIQMTQSPSSVSTSVGDRVTITCKASQNVDTAVAWYQQKPGKAPKLLIYSASHRYTGVPSRFSGSGSGTDFTLTISSLQPEDFATYYCQQYTDFPLTFGQGTRLEIK
notes: Humanized Fab, human gamma 1 and kappa constant domains; also called 21VH12D9-VH2VL2
In the test with human CXCL13 [2], B15 gave a Kd of 1.32 nM, a koff of 0.00195 s⁻¹ and a kon of 1.48e+06 M⁻¹ s⁻¹. In the test with human CXCL13 [3], the Kd came out at 1.94 nM, the koff was 0.000802 s⁻¹ and the kon stood at 414000 M⁻¹ s⁻¹.

B16: 21H12D9-VH3VL2 (Fab, V domains shown)
VH: B15 VH with M48I, V68A, M70L
VL: B15 VL
notes: Humanized Fab, human gamma 1 and kappa constant domains; also called 21VH12D9-VH3VL2
In the case of B16, in the test with human CXCL13 [3], the Kd came to 1.47 nM, the koff is 0.00138 s⁻¹ and the kon is 940000 M⁻¹ s⁻¹.

B17: 21H12D9-VH4VL1 (Fab, V domains shown)
VH: B15 VH with V20M, M48I, V68A, M70L, S77G, V112L
VL: B15 VL with T13A
notes: Humanized Fab, human gamma 1 and kappa constant domains; also called 21VH12D9-VH4VL1
Regarding B17, in the test with human CXCL13 [3], the Kd came out at 1.73 nM, the koff was found to be 0.00107 s⁻¹ and the kon was 618000 M⁻¹ s⁻¹.

B18: 21H12D9-VH3VL3 (Fab, V domains shown)
VH: B15 VH with M48I, V68A, M70L
VL: B15 VL with L78V
notes: Humanized Fab, human gamma 1 and kappa constant domains; also called 21VH12D9-VH3VL3
On to B18, for which, in the test with human CXCL13 [2], the Kd was 1.22 nM, the koff is 0.00182 s⁻¹ and the kon is 1.49e+06 M⁻¹ s⁻¹. In the test with human CXCL13 [3], this molecule showed a Kd of 1.47 nM, a koff of 0.00207 s⁻¹ and a kon of 1.41e+06 M⁻¹ s⁻¹.

B19: 21H12D9-VH1VL2 (Fab, V domains shown)
VH: B15 VH with V12K, V72R
VL: B15 VL
notes: Humanized Fab, human gamma 1 and kappa constant domains; also called 21VH12D9-VH1VL2
In the test with human CXCL13 [2], B19 displayed a Kd of 1.19 nM, a koff of 0.00171 s⁻¹ and a kon of 1.44e+06 M⁻¹ s⁻¹. In the test with human CXCL13 [3], this molecule registered a Kd of 1.99 nM, a koff of 0.000757 s⁻¹ and a kon of 380000 M⁻¹ s⁻¹.

B20: 21H12D9-VH4VL3 (Fab, V domains shown)
VH: B15 VH with V20M, M48I, V68A, M70L, S77G, V112L
VL: B15 VL with L78V
notes: Humanized Fab, human gamma 1 and kappa constant domains; also called 21VH12D9-VH4VL3
B20: in the test with human CXCL13 [3], the affinity, expressed as Kd, was 1.59 nM; the koff was found to be 0.00116 s⁻¹; the kon was 729000 M⁻¹ s⁻¹.

B21: 21H12D9-VH4VL2 (Fab, V domains shown)
VH: B15 VH with V20M, M48I, V68A, M70L, S77G, V112L
VL: B15 VL
notes: Humanized Fab, human gamma 1 and kappa constant domains; also called 21VH12D9-VH4VL2
As to B21, in the test with human CXCL13 [3], binding was characterised by a dissociation constant (Kd) of 1.54 nM, the koff stood at 0.00114 s⁻¹ and the kon is 742000 M⁻¹ s⁻¹.

B22: 21H12D9-VH3VL1 (Fab, V domains shown)
VH: B15 VH with M48I, V68A, M70L
VL: B15 VL with T13A
notes: Humanized Fab, human gamma 1 and kappa constant domains; also called 21VH12D9-VH3VL1
In the test with human CXCL13 [3], B22 showed a Kd of 1.76 nM, a koff of 0.00131 s⁻¹ and a kon of 744000 M⁻¹ s⁻¹.

B23: 21H12D9-VH1VL1 (Fab, V domains shown)
VH: B15 VH with V12K, V72R
VL: B15 VL with T13A
notes: Humanized Fab, human gamma 1 and kappa constant domains; also called 21VH12D9-VH1VL1
Take B23: in the test with human CXCL13 [2], the Kd was determined as 1.23 nM, the koff came out at 0.00203 s⁻¹ and the kon came out at 1.66e+06 M⁻¹ s⁻¹. In the test with human CXCL13 [3], the Kd came out at 1.33 nM, the koff came out at 0.00323 s⁻¹ and the kon amounted to 2.42e+06 M⁻¹ s⁻¹.
